Laboratory results taken from patent publication US5474766, “Methods and compositions for inhibition of hepatic clearance of tissue-type plasminogen activator” (Washington University, dated 1995).

Columns and labels:
[1] = target: low density lipoprotein receptor-related protein (LRP) on rat MH1C1 hepatoma cells (rat); test: saturation binding to MH1C1 cells, Scatchard; simultaneous assays, n=4
[2] = target: low density lipoprotein receptor-related protein (LRP) on rat MH1C1 hepatoma cells (rat); test: saturation binding to MH1C1 cells pre-incubated with 0.1% saponin, Scatchard; n=3 (ligand label as printed, doubtful)
[3] = target: low density lipoprotein receptor-related protein (LRP) on rat MH1C1 hepatoma cells (rat); test: competition of 125I-t-PA binding to MH1C1 cells
[4] = target: low density lipoprotein receptor-related protein (LRP) on rat MH1C1 hepatoma cells (rat); test: saturation binding to MH1C1 cells, Scatchard; summary of 7 experiments
[5] = target: low density lipoprotein receptor-related protein (LRP) on rat MH1C1 hepatoma cells (rat); test: competition of 125I-t-PA binding to MH1C1 cells by recombinant rat 39 kDa protein
[6] = target: low density lipoprotein receptor-related protein (LRP) on rat MH1C1 hepatoma cells (rat); test: competition of 4 nM 125I-t-PA binding to MH1C1 cells, fragment eluted from PVDF
[7] = target: low density lipoprotein receptor-related protein (LRP) on rat MH1C1 hepatoma cells (rat); test: saturation binding to MH1C1 cells, Scatchard; summary of 10 experiments
[8] = target: low density lipoprotein receptor-related protein (LRP) on rat MH1C1 hepatoma cells (rat); test: saturation binding to untreated MH1C1 cells, Scatchard; n=3
[9] = target: T1, low density lipoprotein receptor-related protein (LRP) on human hepatoma HepG2 cells (human, UniProt Q07954); test: saturation binding to HepG2 cells at 4 C, Scatchard; one experiment
Method: (§1) Cells were seeded into multiwell (12 wells/plate) disposable plastic tissue culture plates 2 days prior to assay. Ligand binding buffer for t-PA was composed of phosphate-buffered saline (PBS) supplemented with 0.2 mM CaCl_2 and 10 mM EACA, whereas PBSc (PBS containing 1 mM CaCl_2 and 0.5 mM MgCl_2) was used for 39 kDa protein binding. Binding experiments were performed at 4° C. to prevent possible concomitant internalization during the binding interval. Cell monolayers were washed three times on ice with prechilled binding buffer. Binding was initiated by adding 0.5 ml binding buffer containing selected concentrations of ^125I-labelled ligand in the absence or presence of an excess unlabelled ligand (1 μM). After incubation at 4° C. for 1.5 hours, buffer containing unbound ligand was removed. Cells were then washed three times with binding buffer and lysed in 0.0625M Tris-HCl, pH 6.8, containing 0.2% (w/v) SDS and 10% (v/v) glycerol ("low-SDS lysis buffer"). Radioactivity of cell lysates was quantified by γ scintillation spectrometry. For some experiments, cell lysates were further analyzed by SDS-PAGE and autoradiography as described below. Total binding was determined in the presence of ^125I-labelled ligand alone. Nonspecific binding was determined in the presence of excess unlabelled ligand. Specific ligand binding was defined as the difference between total and nonspecific binding. […]

[10] = target: low density lipoprotein receptor-related protein (LRP) on human hepatoma HepG2 cells (human) (UniProt Q07954)
[11] = target: T1, low density lipoprotein …; test: saturation binding to HepG2 cells at 4 C, Scatchard; five experiments
Method: as §1

[12] = target: low density lipoprotein receptor-related protein (LRP) on rat MH1C1 hepatoma cells (rat); test: saturation binding of 125I-ligand to MH1C1 cells at 4 C, Scatchard analysis (one experiment, FIG. 1A)
[13] = target: low density lipoprotein receptor-related protein (LRP) on rat MH1C1 hepatoma cells (rat)
[14] = target: low density lipoprotein receptor-related protein (LRP) on human hepatoma HepG2 cells (human) (UniProt Q07954); remark: listed apart in the source
[15] = target: low density lipoprotein receptor-related protein (LRP) on rat MH1C1 hepatoma cells (rat); test: competition of 4 nM 125I-t-PA binding to MH1C1 cells, protein eluted from PVDF
[16] = target: low density lipoprotein receptor-related protein (LRP) on rat MH1C1 hepatoma cells (rat); test: competition of 3 nM 125I-t-PA binding to MH1C1 cells at 4 C
[17] = target: low density lipoprotein receptor-related protein (LRP) on rat MH1C1 hepatoma cells (rat); test: competition of 4 nM 125I-t-PA binding to MH1C1 cells; buffer alone exhibited 20-30% inhibition

tissue-type plasminogen activator (t-PA) (from UniProt P00750) (enzyme)
Kd [1]: 5.6 nM | Kd [2]: 9.1 nM | Ki [3]: 8 nM | Kd [4]: 4.9 nM

rat 39 kDa protein (from UniProt Q99068) (ligand)
Ki [5]: 0.5 nM

B1: 28 kDa C-terminal fragment of the 39 kDa protein (ligand)
chain: PRLEKLWHKAKTSGKFSGEELDKLWREFLHHKEKVHEYNVLLETLSRTEEIHENVISPSDLSDIKGSVLHSRHTELKEKLRSINQGLDRLRRVSHQGYSTEAEFEEPRVIDLWDLAQSANLTDKELEAFREELKHFEAKIEKHNHYQKQLEIAHEKLRHAESVGDGERVSRSREKHALLEGRTKELGYTVKKHLQDLSGRISRARHNEL
IC50 [6]: 4 nM | concentration at 90% inhibition [6]: 16 nM

B2: 39 kDa protein (ligand)
chain: YSREKNQPKPSPKRESGEEFRMEKLNQLWEKAQRLHLPPVRLAELHADLKIQERDELAWKKLKLDGLDEDGEKEARLIRNLNVILAKYGLDGKKDARQVTSNSLSGTQEDGLDDPRLEKLWHKAKTSGKFSGEELDKLWREFLHHKEKVHEYNVLLETLSRTEEIHENVISPSDLSDIKGSVLHSRHTELKEKLRSINQGLDRLRRVSHQGYSTEAEFEEPRVIDLWDLAQSANLTDKELEAFREELKHFEAKIEKHNHYQKQLEIAHEKLRHAESVGDGERVSRSREKHALLEGRTKELGYTVKKHLQDLSGRISRARHNEL
Kd [7]: 3.3 nM | Kd [8]: 2.7 nM | Kd [9]: 4.9 nM | specific degradation of ^125 I-t-PA by HepG2 cells (TCA-soluble radioactivity) [10]: 75% | Kd [11]: 5.1 nM | Kd [1]: 3.5 nM | Kd [12]: 3.2 nM | rate of ligand uptake and degradation at 37° C. (fmol/10^6 cells/minute) [13]: 52 | specific ^125 I-t-PA uptake by HepG2 cells (cell-associated radioactivity) [14]: 70% | IC50 [15]: 1 nM | concentration at 90% inhibition [15]: 8 to 10 nM | IC50 [16]: < 1 nM

B3: 20 kDa N-terminal fragment of the 39 kDa protein (ligand)
chain: YSREKNQPKPSPKRESGEEFRMEKLNQLWEKAQRLHLPPVRLAELHADLKIQERDELAWKKLKLDGLDEDGEKEARLIRNLNVILAKYGLDGKKDARQVTSNSLSGTQEDGLDD
percent inhibition at 16 nM [17]: 10%
